How the values were obtained:
[1] = molecular target: T1, formyl peptide receptor (FPR), wild type, detergent-solubilized (human), P21462; assay: spectrofluorimetric competition with L^F for solubilized FPR, IC50 converted to Kd
T1 chain: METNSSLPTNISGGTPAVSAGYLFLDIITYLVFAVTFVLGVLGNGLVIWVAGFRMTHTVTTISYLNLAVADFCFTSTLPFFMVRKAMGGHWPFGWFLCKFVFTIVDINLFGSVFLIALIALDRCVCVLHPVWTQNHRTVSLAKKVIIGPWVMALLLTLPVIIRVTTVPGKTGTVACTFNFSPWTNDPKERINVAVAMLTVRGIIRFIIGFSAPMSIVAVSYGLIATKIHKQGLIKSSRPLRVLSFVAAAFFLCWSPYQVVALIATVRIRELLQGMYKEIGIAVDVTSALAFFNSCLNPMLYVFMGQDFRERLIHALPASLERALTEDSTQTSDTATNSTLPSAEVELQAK

[2] = molecular target: FPR-GFP fusion protein (human; Aequorea victoria), P21462; assay: flow cytometry, LRG assembly of 30 nM FPR-GFP on αβγ DCNi beads, ligand varied (FIG. 13B)
[3] = molecular target: FPR-GFP fusion protein (human; Aequorea victoria), P21462; assay: Kd from competition on wild type FPR divided by EC50 of LRG assembly with FPR-GFP

B1: fMLFF (peptide)
peptide: MLFF
modifications: not checked
[1]
  Kd: 75 nM
[2]
  EC50: 27 nM
[3]
  ratio of Kd (for LR) to EC50 (for LRG formation): 2.8

Source: patent US7232659
